Experimental data published in US7888291B2, “Substrates and assays for β-secretase” (Elan Pharmaceuticals, Inc., priority 2000, dated 2011).
“Also recorded” adds a separate entry of the source. Non-standard residues stand in square brackets, D forms with d. No end group written: not given here. Nle = CCCC[C@H](N)C(=O)O; SO3‑ = not defined here

Experiments:
Format in all cases: biochemical
[1] = molecular target: T1, Hu-Asp2 (Homo sapiens, UniProt P56817); test: Hu-Asp2 peptide substrate cleavage assay (HPLC quantitation of cleavage products); settings: for activity / rate of hydrolysis by Asp2 over wild type peptide (SEQ ID NO:20): Tables 3 and 4
T1 construct: made in house; host or cells: High Five insect cells

[2] = molecular target: T1, Hu-Asp2; test: as above; design: key to Activity: Those substrates that were not cleaved by the Hu-Asp2 are indicated by a “−” sign; substrates that produced activity are indicated by “+” signs in which the greater the activity, the more + signs are provided; ++: substrates that produced activity are indicated by “+” signs in which the greater the activity, the more + signs are provided; ++++: substrates that produced activity are indicated by “+” signs in which the greater the activity, the more + signs are provided; settings: for Activity: 200 μM test substrate, 210 nM Hu-Asp2 enzyme, pH 4.5, 37° C., 3 hours
Experimental: The peptides listed in Table 2 were designed, synthesized, and tested for activity as substrates for Hu-Asp2. 200 μM of each test substrate was incubated with 210 nM Hu-Asp2 enzyme at pH 4.5 at 37° C. for 3 hours. Of course it should be understood that these are merely exemplary assay conditions, and those of skill in the art will be able to vary these conditions and yet still provide appropriate Hu-Asp2 activity. For example, it is envisioned that the assays may be conducted at a pH range of from between about 4.0 to about 7.0. The amount of enzyme added to a given reaction mixture may also be varied and those of skill in the art will be able to perform assays defining the optimal enzyme concentrations necessary for a given assay, as such 150 nm; 200 nm; 250 nm; 300 nm or more or less enzyme may be added. Substrate concentration in those also may be varied such that an assay may use 100, 150 μM, 200 μM, 250 μM, 300 μM, 350 μM or more or less of any given; substrate. It may be that one substrate produces an optimum activity at one concentration whereas another substrate is needed to be present at a different concentration to produce an optimum cleavage rate. However, such optimizations of enzyme assay conditions is well within the skill of those in the art and will not require undue experimentation.
In an exemplary assay to determine the cleavage of the substrates of the present invention, Asp2 was prepared from High Five™ insect cells. Generally, the assasy are run in solution at acidic pH (4.0 to 5.0), at 25-37° C. in the presence of nM or sub-nanomolar enzyme. After a suitable period of incubation the reaction is stopped at a desired time by addition of 4% trifluoracetic acid (TFA). Substrates and products are separated using reverse phase HPLC. The disappearance of the substrates and the appearance of the products are monitored by continuous measurement of the absorbance of the effluent at […]. Furthermore, if the peptide comprises a tryptophan residue, the monitoring may additionally or alternatively involve continuous monitoring of fluorescence of tryptophan fluorescence (excitation at 280 nm, emission at […]) of the effluent.
In a typical assay, 210 nM enzyme and 200 μM substrate were incubated in 0.2 M sodium acetate at pH 4.5 in 100 μl volume at 37° C. for 1 to 3 hours. The assay was stopped by the addition of 50 μl 4% TFA to lower the pH below the active range of the enzyme. Subsequently, 100 μl of this mixture was injected into a Hewlett Packard Model 1090 HPLC equipped with a Vydac column (4.6 mm i.d.×150 mm, 5 μm) pre-equilibrated with 95% A (0.15% TFA in water), 5% B (0.15% TFA in acetonitrile). The constituents were then eluted from the column with the following linear gradients: 0-15 min: 5-50% B; 15-17 min: 50-100% B; 17-20 min: 100-5% B; 20-22 min: 5% B). The cleavage products were then quantitated using an enhanced integrator. […]

[3] = molecular target: Hu-Asp (Homo sapiens, UniProt P56817); test: Hu-Asp cleavage assay variation for substrates of SEQ ID NO:190 and 191 (Vmax, Km, pH, ionic strength, DMSO); design: made in house; host or cells: High Five insect cells; settings: 100 mM NaOAc/HOAc, pH 4.5 (stated for SEQ ID NO:190 and 191)
Experimental: In the substrates SEISY-EVEFRWKK (SEQ ID NO:190) and GLTNIKTEEISEISY-EVEFRWKK (SEQ ID NO:191), the 10 N-terminal amino acids of peptide SEISY-EVEFRWKK (SEQ ID NO:190) are identical to those of peptide SEISY-EVEFR (SEQ ID NO:152). The difference between the two peptide is the presence of a tryptophan and two lysines in the peptide of SEQ ID NO:190. […] Hu-Asp activity was tested towards SEISY-EVEFRWKK (SEQ ID NO:190) and GLTNIKTEEISEISY-EVEFRWKK (SEQ ID NO:191). […] The activity difference between the two peptides was particularly dramatic in the pH range 4.0-4.6. Specifically, it was 6.3-4.8 times higher for the peptide of SEQ ID NO:191. […] Both peptides were inhibited by increasing concentrations of DMSO. […] As expected, the N-terminus elongation increases activity. […] The development of the substrates of SEQ ID NO:190 and SEQ ID NO:191 is of great value in Hu-Asp inhibition studies and in studies concerning recombinant Hu-Asp refolding from E. coli inclusion bodies.
In a variation of the above assay for substrates of SEQ ID NO:190 or its N-terminally extended version depicted in SEQ ID NO:191), the substrates are incubated with the enzyme to a final reaction solution volume of 200 μl (although reaction mixtures of 50-100 μl also were used) composed of 5-50 μM peptide substrate, 1-10 nM enzyme, 0.1. M sodium acetate buffer at pH 4 to 5. […]

[4] = Table 3, 200 nM enzyme, 200 μM substrate, 300 mM Na-acetate, 4% DMSO, pH 4.5, 37° C., 4 hr, APP-Sw = 100

T1 sequence (P56817 46-501): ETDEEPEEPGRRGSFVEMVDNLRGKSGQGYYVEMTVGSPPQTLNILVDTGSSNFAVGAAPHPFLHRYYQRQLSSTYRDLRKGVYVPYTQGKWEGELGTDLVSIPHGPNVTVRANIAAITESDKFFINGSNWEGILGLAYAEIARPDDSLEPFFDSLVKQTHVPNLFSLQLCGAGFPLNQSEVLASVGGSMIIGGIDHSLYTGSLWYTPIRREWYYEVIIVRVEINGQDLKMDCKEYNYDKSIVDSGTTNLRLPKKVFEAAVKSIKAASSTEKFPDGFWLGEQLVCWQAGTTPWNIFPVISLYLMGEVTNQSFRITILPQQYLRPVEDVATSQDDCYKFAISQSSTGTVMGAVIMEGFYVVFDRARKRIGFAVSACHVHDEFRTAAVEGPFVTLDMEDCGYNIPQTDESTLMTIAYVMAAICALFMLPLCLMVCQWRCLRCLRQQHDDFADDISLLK
Sequence of Hu-Asp (P56817 46-501): as above

Relative rate of Cleavage [1, 4]	Activity [2]	Substance	activity as substrate of Hu-Asp2 (in words) [2]	also measured
		Biotin-KVEANY-EVEGERC(oregon green)KK		Vmax and Km compared with a previous biotinylated fluorescent substrate derived from the Swedish Mutant peptide [1]: at least twice better; also recorded: at least double; cleavage after 15 minutes ([1]; 200 mM sodium acetate, pH 4.5, 10 μM substrate, 50 nM enzyme, 37° C., 15 minutes): 20%; cleavage after 30 minutes ([1]; 200 mM sodium acetate, pH 4.5, 10 μM substrate, 50 nM enzyme, 37° C., 30 minutes): 37%; cleavage after 60 minutes ([1]; 200 mM sodium acetate, pH 4.5, 10 μM substrate, 50 nM enzyme, 37° C., 60 minutes): 57%; cleavage after 120 minutes ([1]; 200 mM sodium acetate, pH 4.5, 10 μM substrate, 50 nM enzyme, 37° C., 120 minutes): 82%; cleavage site [2]: between Tyr and Glu only
		GLTNIKTEEISEISYEVEFRWKK [SEQ ID NO:191, GLTNIKTEEISEISY-EVEFRWKK]		Km [3]: 43.1 µM
		KTEEISEVSY-EVEFR (KTEEISEVSYEVEFR)		rate of cleavage / activity over SEVSY-EVEFR (SEQ ID NO:141) [1]: 3.6 fold; Cleavage Activity ([1]; Table 5, 2 nM enzyme, 50 μM substrate, 25 mM Sodium acetate, pH 4.4, 37° C., 2 hr): 0.58 µmol/min/mg; Relative rate of Cleavage ([1]; Table 5, 2 nM enzyme, 50 μM substrate, 25 mM Sodium acetate, pH 4.4, 37° C., 2 hr, SEQ ID NO:141 = 100): 360
92.0		KTINL-↓-EVEPS (KTINLEVEPS) [Peptide 2]	activity similar to that of the Swedish mutant	
12.2		KTINnle-↓-DVDPS (KTIN[Nle]DVDPS) [Peptide 5]		reduction of activity compared with peptide #3 (SEQ ID NO:134) ([1]; Table 3): about 10 fold
93.6		KTINnle-↓-EVDPS (KTIN[Nle]EVDPS) [Peptide 4]	very well tolerated	
92.6		KTINnle-↓-EVEPS (KTIN[Nle]EVEPS) [Peptide 3]	activity similar to that of the Swedish mutation	
20.5		KTISL- ↓-DVDPS (KTISLDVDPS) [Peptide 7]	activity dropped substantially	
69.0		KTISL- ↓-DVEPS (KTISLDVEPS) [Peptide 6]		activity as percentage of the Swedish mutation peptide (SEQ ID NO:19) ([1]; Table 3): 69%; activity / rate of hydrolysis by Asp2 over wild type peptide (SEQ ID NO:20) [1]: about 35 fold
13.1		KTITL-↓-EVEPS (KTITLEVEPS) [Ubiquitin (Pep 1)]		activity as percentage of the Swedish mutation peptide (SEQ ID NO:19) ([1]; Table 3): about 13%; activity / rate of hydrolysis by Asp2 over wild type peptide (SEQ ID NO:20) [1]: six times better than wild type peptide
	+	KVEALY-AVEGERKK (KVEALYAVEGERKK)		
	−	KVEALY-LV(SO3-)GER (KVEALYLV[SO3‑]GER; reading uncertain; also: sulfonated residue, parent residue not given here, printed as KVEALY-LV(SO3-)GER)		
	+	KVEANL-AVEGERKK (KVEANLAVEGERKK)		
	++++	KVEANY-AVEGERKK (KVEANYAVEGERKK)		
	+	KVEANY-DVEGERKK (KVEANYDVEGERKK)		
		KVEANY-EVEGERCKK (KVEANYEVEGERCKK)	good substrate for Hu-Asp2	
